Assay results taken from article PMC12276362 (Nature Communications, 2025).

Biological target: rhAMPK protein (AMPKα2, Abiocenter Biotechnology) (human (printed only as the prefix rh), UniProt P54646 1-552)
Test: BLI

Chain of rhAMPK protein (AMPKα2, Abiocenter Biotechnology) (P54646 whole entry): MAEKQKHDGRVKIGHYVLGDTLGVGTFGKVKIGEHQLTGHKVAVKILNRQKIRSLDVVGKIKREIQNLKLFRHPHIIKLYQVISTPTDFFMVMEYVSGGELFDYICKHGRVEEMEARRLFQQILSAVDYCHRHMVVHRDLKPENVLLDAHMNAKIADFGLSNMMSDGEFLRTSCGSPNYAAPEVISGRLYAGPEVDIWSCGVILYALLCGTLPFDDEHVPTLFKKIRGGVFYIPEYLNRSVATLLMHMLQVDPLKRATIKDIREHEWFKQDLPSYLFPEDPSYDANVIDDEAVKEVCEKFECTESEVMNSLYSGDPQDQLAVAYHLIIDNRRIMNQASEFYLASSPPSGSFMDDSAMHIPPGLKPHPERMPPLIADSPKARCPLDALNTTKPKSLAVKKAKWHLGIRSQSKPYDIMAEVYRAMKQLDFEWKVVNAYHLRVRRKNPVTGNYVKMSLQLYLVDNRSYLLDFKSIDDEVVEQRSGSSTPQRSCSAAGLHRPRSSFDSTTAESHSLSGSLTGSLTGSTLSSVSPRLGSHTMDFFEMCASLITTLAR

Kd: 55.6 nM
B1: rhOTUD1 protein (enzyme, human (printed only as the prefix rh), UniProt Q5VV17 1-481, looked up)
chain: MQLYSSVCTHYPAGAPGPTAAAPAPPAAATPFKVSLQPPGAAGAAPEPETGECQPAAAAEHREAAAVPAAKMPAFSSCFEVVSGAAAPASAAAGPPGASCKPPLPPHYTSTAQITVRALGADRLLLHGPDPVPGAAGSAAAPRGRCLLLAPAPAAPVPPRRGSSAWLLEELLRPDCPEPAGLDATREGPDRNFRLSEHRQALAAAKHRGPAATPGSPDPGPGPWGEEHLAERGPRGWERGGDRCDAPGGDAARRPDPEAEAPPAGSIEAAPSSAAEPVIVSRSDPRDEKLALYLAEVEKQDKYLRQRNKYRFHIIPDGNCLYRAVSKTVYGDQSLHRELREQTVHYIADHLDHFSPLIEGDVGEFIIAAAQDGAWAGYPELLAMGQMLNVNIHLTTGGRLESPTVSTMIHYLGPEDSLRPSIWLSWLSNGHYDAVFDHSYPNPEYDNWCKQTQVQRKRDEELAKSMAISLSKMYIEQNACS
modifications: biotin (EZ-Link Sulfo-NHS-LC-Biotinylation Kit)
